Assays:
[1] = molecular target: T1, hiR2-FL-T530P-T7 (human, UniProt Q6PJF5 1-856); assay: FACS, MEF-DKO cells, 3 µg/ml
T1 sequence: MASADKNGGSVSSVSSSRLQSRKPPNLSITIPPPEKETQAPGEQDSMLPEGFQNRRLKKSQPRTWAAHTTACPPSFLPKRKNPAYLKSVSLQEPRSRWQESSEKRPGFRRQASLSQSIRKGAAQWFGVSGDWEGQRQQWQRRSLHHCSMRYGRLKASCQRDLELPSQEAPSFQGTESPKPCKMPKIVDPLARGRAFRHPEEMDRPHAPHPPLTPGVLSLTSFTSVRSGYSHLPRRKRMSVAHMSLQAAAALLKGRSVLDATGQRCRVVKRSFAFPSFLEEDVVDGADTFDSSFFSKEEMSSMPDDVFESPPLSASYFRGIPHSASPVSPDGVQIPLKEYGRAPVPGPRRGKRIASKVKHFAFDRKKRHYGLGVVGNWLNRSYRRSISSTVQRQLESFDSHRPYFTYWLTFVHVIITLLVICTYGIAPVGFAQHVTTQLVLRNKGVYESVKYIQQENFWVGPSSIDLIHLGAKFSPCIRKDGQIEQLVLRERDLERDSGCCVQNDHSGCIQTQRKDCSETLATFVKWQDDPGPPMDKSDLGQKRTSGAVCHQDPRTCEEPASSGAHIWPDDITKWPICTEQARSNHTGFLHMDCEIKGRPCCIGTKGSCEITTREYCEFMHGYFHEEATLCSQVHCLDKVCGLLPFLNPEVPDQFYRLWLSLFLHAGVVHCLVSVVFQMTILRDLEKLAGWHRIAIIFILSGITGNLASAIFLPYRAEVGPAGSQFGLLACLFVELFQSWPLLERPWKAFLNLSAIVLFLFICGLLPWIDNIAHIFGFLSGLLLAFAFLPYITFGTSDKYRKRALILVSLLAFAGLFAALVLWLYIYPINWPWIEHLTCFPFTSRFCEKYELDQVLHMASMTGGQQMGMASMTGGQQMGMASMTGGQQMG

[2] = molecular target: T2, hiR2-FL-L539A-T7 (human, UniProt Q6PJF5 1-856); assay: FACS on MEF-DKO cells
T2 construct: on MEF-DKO cells
T2 sequence: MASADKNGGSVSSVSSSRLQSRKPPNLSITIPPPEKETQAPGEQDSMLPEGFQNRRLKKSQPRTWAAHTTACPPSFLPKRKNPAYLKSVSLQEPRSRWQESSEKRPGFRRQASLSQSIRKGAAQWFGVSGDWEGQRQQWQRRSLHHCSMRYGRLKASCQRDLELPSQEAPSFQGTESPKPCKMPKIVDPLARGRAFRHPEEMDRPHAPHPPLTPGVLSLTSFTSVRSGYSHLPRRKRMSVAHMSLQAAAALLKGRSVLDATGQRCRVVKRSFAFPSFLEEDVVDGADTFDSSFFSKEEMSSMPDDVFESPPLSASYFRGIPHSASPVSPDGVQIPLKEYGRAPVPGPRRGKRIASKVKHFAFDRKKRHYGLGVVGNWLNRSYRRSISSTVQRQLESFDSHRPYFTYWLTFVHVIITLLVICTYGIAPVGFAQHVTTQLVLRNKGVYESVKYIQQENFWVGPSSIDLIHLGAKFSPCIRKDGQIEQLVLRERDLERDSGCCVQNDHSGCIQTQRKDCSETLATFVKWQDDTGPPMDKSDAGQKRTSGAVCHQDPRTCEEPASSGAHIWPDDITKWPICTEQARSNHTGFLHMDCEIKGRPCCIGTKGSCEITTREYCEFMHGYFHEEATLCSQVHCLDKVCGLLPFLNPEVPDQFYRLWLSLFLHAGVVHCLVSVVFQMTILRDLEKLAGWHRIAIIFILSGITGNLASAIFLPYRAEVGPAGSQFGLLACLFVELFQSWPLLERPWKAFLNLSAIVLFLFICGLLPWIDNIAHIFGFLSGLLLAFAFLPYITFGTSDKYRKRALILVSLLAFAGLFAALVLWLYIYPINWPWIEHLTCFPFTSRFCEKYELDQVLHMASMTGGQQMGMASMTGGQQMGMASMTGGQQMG

[3] = molecular target: T3, hiR2-FL-P532A-T7 (human, UniProt Q6PJF5 1-856); assay: FACS, MEF-DKO cells, 3 µg/ml
T3 sequence: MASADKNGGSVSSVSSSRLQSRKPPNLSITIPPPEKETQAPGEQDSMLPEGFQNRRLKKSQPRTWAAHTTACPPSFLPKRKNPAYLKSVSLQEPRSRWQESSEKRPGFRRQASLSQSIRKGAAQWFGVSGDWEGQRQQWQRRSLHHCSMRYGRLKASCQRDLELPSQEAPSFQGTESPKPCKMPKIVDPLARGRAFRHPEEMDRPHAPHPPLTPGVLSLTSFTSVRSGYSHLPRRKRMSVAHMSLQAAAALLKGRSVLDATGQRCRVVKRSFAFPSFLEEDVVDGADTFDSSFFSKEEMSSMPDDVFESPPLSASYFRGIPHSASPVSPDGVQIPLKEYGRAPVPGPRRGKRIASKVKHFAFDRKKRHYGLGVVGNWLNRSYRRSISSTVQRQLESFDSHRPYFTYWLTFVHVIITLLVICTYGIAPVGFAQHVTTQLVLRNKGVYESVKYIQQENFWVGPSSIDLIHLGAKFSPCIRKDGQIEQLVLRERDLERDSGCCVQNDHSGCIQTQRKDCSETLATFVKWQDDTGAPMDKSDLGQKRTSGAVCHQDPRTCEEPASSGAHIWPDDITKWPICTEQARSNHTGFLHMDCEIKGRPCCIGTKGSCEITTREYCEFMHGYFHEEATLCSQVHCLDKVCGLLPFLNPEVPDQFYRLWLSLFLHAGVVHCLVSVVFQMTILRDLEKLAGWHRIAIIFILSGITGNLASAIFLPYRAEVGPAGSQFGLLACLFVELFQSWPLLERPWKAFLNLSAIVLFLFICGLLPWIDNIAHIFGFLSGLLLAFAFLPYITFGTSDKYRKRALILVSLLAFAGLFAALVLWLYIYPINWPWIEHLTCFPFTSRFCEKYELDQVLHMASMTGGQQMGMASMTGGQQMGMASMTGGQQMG

Row | Binder | loss of binding vs wild type [1] [%] | binding result [2] | loss of binding vs wild type [3] [%]
1 | antibody 48 (antibody, V domains shown, mouse IgG, kappa light chain; also called clone #48; purified antibody 48) VH: QVQLQQSGTELVRPGTSVKVSCKASGYAFTNYLIEWVKQRPGQGLEWIGVINPGSGFTKYNEKFKGKATLTADKSSSTVYMHLSSLTSEDSAVYFCARGLYRAMDYWGQGTSVTVSS VL: DIQMTQSPASQSASLGESVTITCLASQTIATWLAWYQQKPGKSPQLLIYGATTLADGVPSRFSGGGSGTKFSFKISSLQAEDFVSYYCQQLYSTPYTFGGGTKLEIK | ≥ 30 |  | 
2 | antibody 50 (antibody, V domains shown, mouse IgG, kappa light chain; also called clone #50; purified antibody 50) VH: QVQLQQSGAELVRPGASVKVSCKASGYAFSNYLIEWVKQRPGQGLEWIGVINPGSGFTKYNEKFKGKATLTADKSSSTAYMQLSSLTSEDSAVYFCARGLYRAMDYWGQGTSVTVSS VL: DIQMTQSPASQSASLGESVTITCLASQTIGTWLAWYQQKPGKSPQLLIYAAASLADGVPSRFSGGGSGTKFSFKISSLQAEDFVNYYCQQIYSTPYTFGGGTKLEIK | ≥ 30 |  | 
3 | antibody 5 (antibody, V domains shown, mouse IgG, kappa light chain; also called clone #5; purified antibody 5) VH: QVTLKESGPGILQPSQTLSLTCSFSGFSLSTFGMGVGWIRQPSGKGLEWLAHIWWDDEKYYNSALKSRLTISKATSKNQAFLKIANVDTADTATYYCARISNYGSNYWYFNVWGTGTTVTVSS VL: QVVLTQSPALMSASPGEKVTMTCSAGSSVSCMYWYQQKPGSSPRVLIYDTSNLASGVPARFTGSGSGTSYSLTISRMEAEDAASYYCQQWNSYPLTFGAGTKLELK |  | no binding (tested: 3 µg/ml) | ≥ 60
4 | antibody 44 (antibody, V domains shown, mouse IgG, kappa light chain; also called clone #44; purified antibody 44) VH: QVTLKESGPGILQPSQTLSLTCSFSGFSLSTFGMGVGWIRQPSEKGLEWLAHIWWDDDKYYNPALKSRLTISKDTSKNQIFLKITNVDTAETATYYCSRIGNYGSNYWYFDVWGTGTTVTVSS VL: QIVLTQSPAVMSASPGEKVTMTCTASSSVYYMYWYQQTPGSSPRLLIYDTSNLASGVPVRFSGSGSGTSYSLTISRMEAEDAATYYCQQWNTYPLTFGAGTKLELK |  | no binding (tested: 3 µg/ml) | ≥ 60
5 | antibody 42 (antibody, V domains shown, mouse IgG, kappa light chain; also called clone #42; purified antibody 42) VH: QVTLKESGPGILQPSQTLSLTCSLSGFSLSTFGRGVGWIRQPSGKGLEWLAHIWWDDEKYYNPALKSRLTISKDTSKNQVFLRIANVDTADTATYYCARIQNYGSNYWYFDVWGTGTTVTVSS VL: LIVLTQSPAIMSASPGEKVTMTCGATSRISYMFWYQQKPGSSPRVLIYDTSNLASGVPVRFSGSGSGTSYSLTISRVEAEDVATYYCQQWNSYPLTFGAGTKLELK | ≥ 30 | no binding (tested: 3 µg/ml) | ≥ 60
6 | antibody 43 (antibody, V domains shown, mouse IgG, kappa light chain; also called clone #43; purified antibody 43) VH: QVALKESGPGILQPSQTLSLTCSFSGFSLSTFGMGVGWIRQSSGKGLEWLANIWWDDDKYYNPALKSRLTISKDASKNQAFLKIANVDTADTATYYCARIGNYGSNYWYFDVWGTGTTVTVSS VL: QIVLTQSPAIMSASPGERVTMTCSANSRISYMYWYQQKPGSSPRLLIYDTSNLASGVPVRFSGSGSGTSYSLTISRMEAEDAATYNCQQWSSYPLTFGAGTKLELK |  | no binding (tested: 3 µg/ml) | ≥ 60
7 | antibody 22 (antibody, V domains shown, mouse IgG, kappa light chain; also called clone #22; purified antibody 22) VH: QVTLKESGPGILQPSQTLSLTCSFSGFSLSTFGMGVGWIRQPSGKGLEWLAHIWWDDEKYYNSALKSRLTISKATSKNQVFLKIANVDTADTATYYCARISNYGSNYWYFNVWGTGTTVTVSS VL: QVVLTQSPALMSASPGEKVTMTCSAGSSVSYMYWYQQKPGSSPRVLIYDTSNLASGVPARFTGSGSGTSYSLTISRMEAEDAATYYCQQWNSYPLTFGAGTKLELK |  | no binding (tested: 3 µg/ml) | ≥ 30
8 | antibody 34 (antibody, V domains shown, mouse IgG, kappa light chain; also called clone #34; purified antibody 34) VH: QVTLKESGPGILQPSQTLSLTCSFSGFSLSTFSLGVGWIRQSSGKGLEWLAHIWWDDEKYYNPALKSRLTISKDTSKNQVFLKIANVDAADTATYYCARAYYSKSYYALDYWGQGTSVTVSS VL: DIQMTQSPSSLSASLGERVSLTCRASQEISGYLSWLQQKPDGTIKRLIYAASTLDSGVPKRFSGSRSGSDYSLAISSLESEDFADYYCLQYANFPFTFGSGTKLEIK |  | no binding (tested: 3 µg/ml) | 

From patent US20240287172A1 (SCIRHOM, published 2024)
